Measured values: publication PMC4847170, “Insights into the DNA-binding mechanism of a LytTR-type transcription regulator”

How the values were obtained:
Conditions in all cases: protein: recombinant; tags: N-terminal 6His; chain copies: 2; label: 5' biotin on strand 1; blunt
YpdB = target: T1, YpdB (Escherichia coli, UniProt P0AE39 1-244); test: SPR; 1-50 nM protein; lower maximal binding rate and affinity than D53E; SPR (Biacore T200, SA chip): HBS-EP, 10 mM HEPES pH 7.4, 150 mM NaCl, 3 mM EDTA, 0.005% P20, 25 C
T1 sequence: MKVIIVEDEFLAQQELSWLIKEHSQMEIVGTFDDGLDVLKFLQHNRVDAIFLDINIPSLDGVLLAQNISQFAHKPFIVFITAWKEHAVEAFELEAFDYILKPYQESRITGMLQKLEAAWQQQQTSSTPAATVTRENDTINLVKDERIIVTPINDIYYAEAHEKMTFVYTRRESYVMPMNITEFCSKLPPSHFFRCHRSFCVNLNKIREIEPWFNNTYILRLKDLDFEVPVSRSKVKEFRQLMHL

YpdB-D53E [1] = target: T2, YpdB-D53E (Escherichia coli, UniProt P0AE39 1-244, D53E); test: SPR; overall affinity from maximal binding rates, active protein concentration; SPR (Biacore T200, SA chip): HBS-EP, 10 mM HEPES pH 7.4, 150 mM NaCl, 3 mM EDTA, 0.005% P20, 25 C
T2 sequence: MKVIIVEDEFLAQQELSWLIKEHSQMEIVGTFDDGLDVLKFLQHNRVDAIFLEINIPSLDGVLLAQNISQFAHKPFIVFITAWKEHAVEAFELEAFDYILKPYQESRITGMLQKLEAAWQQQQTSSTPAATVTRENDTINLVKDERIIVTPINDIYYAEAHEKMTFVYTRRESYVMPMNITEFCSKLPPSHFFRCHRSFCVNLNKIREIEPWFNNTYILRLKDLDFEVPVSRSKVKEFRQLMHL

YpdB-D53E [2] = target: T2, YpdB-D53E; test: SPR; 1-50 nM protein; binding completely abolished; SPR (Biacore T200, SA chip): HBS-EP, 10 mM HEPES pH 7.4, 150 mM NaCl, 3 mM EDTA, 0.005% P20, 25 C

B1: PyhjX (dsDNA)
DNA 1: GGGGCGCGTCATTCATTCCTGAACTAAGGCATTTCATTCCGTTCTGATGGCATTTCATGCCGGGGG
DNA 2: CCCCCGGCATGAAATGCCATCAGAACGGAATGAAATGCCTTAGTTCAGGAATGAATGACGCGCCCC
Question: Does B1 bind (YpdB)?
Answer: Result: binds

Question: What about the Kd (YpdB-D53E [1]) of the same binder?
Answer: The Kd was 10 nM.

B2: PyhjX_A (site A inactivated) (dsDNA)
DNA 1: GGGGCGCGTCATTCATTCCTGAACTAATTACGGGACGTCCGTTCTGATGGCATTTCATGCCGGGGG
DNA 2: CCCCCGGCATGAAATGCCATCAGAACGGACGTCCCGTAATTAGTTCAGGAATGAATGACGCGCCCC
Question: Does B2 bind (YpdB-D53E [2])?
Answer: Result: no binding
